Experimental data as given in patent US20180094062A1 (Hoffmann-La Roche, published 2018).
Substitutions are numbered along the chain they refer to.

T1: TtSlyDcys-Her3
T1 chain: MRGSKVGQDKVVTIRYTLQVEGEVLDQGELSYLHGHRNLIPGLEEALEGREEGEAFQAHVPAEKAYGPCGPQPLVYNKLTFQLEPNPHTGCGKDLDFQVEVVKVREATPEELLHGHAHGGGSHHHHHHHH

T2: TtSlyD-Wildtype
T2 construct: scaffold without insert; N-terminal methionine can be present or not; also called T.T.SlyD-wt; wild type Thermus thermophilus SlyD protein
T2 chain: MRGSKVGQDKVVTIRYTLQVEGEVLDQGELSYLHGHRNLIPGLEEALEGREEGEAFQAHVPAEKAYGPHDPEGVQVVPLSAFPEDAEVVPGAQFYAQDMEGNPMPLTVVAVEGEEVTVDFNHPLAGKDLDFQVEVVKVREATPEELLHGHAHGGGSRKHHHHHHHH

T3: human Heregulin fragment (HRG) (human)
T3 construct: a 44 kDa homodimeric protein, expressed in FreeStyle 293-F cells; also called Heregulin beta (HRG)
T3 chain: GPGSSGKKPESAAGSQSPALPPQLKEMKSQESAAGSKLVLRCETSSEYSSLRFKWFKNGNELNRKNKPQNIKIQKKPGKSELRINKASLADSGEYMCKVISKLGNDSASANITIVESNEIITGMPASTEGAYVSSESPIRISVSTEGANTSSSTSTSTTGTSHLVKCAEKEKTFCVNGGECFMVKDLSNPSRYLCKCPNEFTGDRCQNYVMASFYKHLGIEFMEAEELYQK

T4: HER4 ECD-HRG complex (Heregulin-complexed Her-4 ECD) (human, UniProt Q15303 26-651)
T4 construct: Her-4 ECD incubated with a 5-fold molar excess of Heregulin
T4 sequence 1: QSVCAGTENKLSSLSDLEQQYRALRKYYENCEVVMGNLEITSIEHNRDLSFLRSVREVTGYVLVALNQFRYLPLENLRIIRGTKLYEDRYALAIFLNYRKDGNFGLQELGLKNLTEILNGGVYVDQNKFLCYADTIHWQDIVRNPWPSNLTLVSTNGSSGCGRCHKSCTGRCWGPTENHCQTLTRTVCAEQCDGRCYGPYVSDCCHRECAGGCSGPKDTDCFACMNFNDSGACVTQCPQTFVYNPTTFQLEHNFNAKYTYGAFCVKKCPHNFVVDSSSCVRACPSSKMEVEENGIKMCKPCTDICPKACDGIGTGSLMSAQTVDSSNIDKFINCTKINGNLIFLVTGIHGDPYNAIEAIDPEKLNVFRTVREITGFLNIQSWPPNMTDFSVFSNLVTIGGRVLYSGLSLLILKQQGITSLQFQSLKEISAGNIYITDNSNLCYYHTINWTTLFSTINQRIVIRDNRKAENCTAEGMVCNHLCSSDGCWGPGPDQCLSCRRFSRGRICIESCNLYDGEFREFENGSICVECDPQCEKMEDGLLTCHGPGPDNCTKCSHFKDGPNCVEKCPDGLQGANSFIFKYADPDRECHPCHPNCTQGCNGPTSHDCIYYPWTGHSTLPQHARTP
T4 sequence 2: T3 chain

B1: anti-HER3 antibody M-17-02 (antibody, V domains shown)
VH: EVQLQQSGTVLARPGASVKMSCKASGYSFTSYWIHWVKQRPGQGLEWIGAIYPGNSDTTYNQKFKGKAKLTAVTSASTAYMELSSLTNEDSAVYYCARTGVWTSYYFDYWGQGTTLTVSS
VL: DIQMTQSPASLSASVGETVTITCRASENIYSNLAWYQQKQGKSPQLLVYAATNLADGVPSRFSGSGSGTQFSLRINSLQPEDFGSYYCQHFYGTPFTFGTGTKLEIK
notes: mouse hybridoma clone
B2: anti-HER3 antibody M-43-01 (antibody, V domains shown)
VH: EVQLQQSGTVLARPGASVKMSCKASDYTFSNYWVHWVKQRPGQGLEWIGAIYPGNGDSTYYQKFKGKATLTAVTSTSTAYMDLSSLTNGDSAVYFCTRSGVGYNYYFDYWGQGTTLTVSS
VL: B1 VL with A50I, R74K, F83L, K107E
notes: mouse hybridoma clone
B3: anti-HER3 antibody M-08-11 (antibody, V domains shown)
VH: QAYLQQSGAELMRPGASVRMSCQASGYTFTSYTIHWLKQTPRQGLEWIGAIYPRNGDFSYNQKFKDKASLTVDTSSSTAYMHLSSLTSEDSAVYFCARTINYGDWFAYWGQGTLVTVSA
VL: DIQMIQSPASLFVSEGETVIITCRASENIYSNLAWYHQKKGKSPQVLVYAAIKLADGVPLRFSGSGSGTQFSLKINSLQSEDFGSYYCQHFWGPPYTFGSGTNLEIK
notes: mouse monoclonal antibody from hybridoma, tested as hybridoma supernatant or as antibody; also called M-011
B4: anti-HER3 antibody M-46-01 (antibody, V domains shown)
VH: QIQLQQSGPQLVRPGASVKISCKASGYSFTSYWMHWVKQRPGRGLEWIGMIDPSDGVTRLNQKFKDKATLTVDNSSSTAYMQLSSPTSEDSAVHYCARVDVLYWYFDVWGAGTTVTVSS
VL: DIVLTQSPASLAVSLGQRATISCRASKSISISGYSYMHWYQQKAGQPPKLLIYLTSNLESGVPARFSGSGSGTDFTLNIHPVEEEDAATYYCHHSRELPFTFGSGTKLEIK
notes: mouse hybridoma clone

What was measured:
[1] = molecular target: T1, TtSlyDcys-Her3; assay: ELISA, antigen coated, hybridoma supernatant
Procedure: For the ELISA screening an antigen down format was used. […] Hybridoma Supernatant was added to the plates and incubated for 1 h at room temperature. Bound antibody was detected with a HRP-labeled F(ab′)₂ goat anti-mouse Fcγ (Dianova) and ABTS (Roche) was used as a HRP-substrate.
As negative controls the scaffold proteins TtSlyDcas and TgSlyDΔIF were used.

[2] = molecular target: T2, TtSlyD-Wildtype; assay: SPR, antibody captured, 25 C
[3] = molecular target: T3, human Heregulin fragment (HRG); assay: SPR Biacore T200, antibody captured, 25 C
Procedure: (§1) A Biacore T200 instrument (GE Healthcare) was mounted with a CM5 series sensor. The sensor was normalized in HBS-ET buffer (10 mM HEPES pH 7.4, 150 mM NaCl, 3 mM EDTA, 0.05% w/v Tween 20) according to the manufacturer's instructions. The sample buffer was the system buffer supplemented with 1 mg/ml CMD (Carboxymethyldextran, Sigma #86524). The system operated at 25° C. 6500 RU RAM-Fcγ (relative units of Fcγ-fragment RamlgG, GE Healthcare) were immobilized according to the manufacturer's instructions using amine coupling EDC/NHS chemistry on all four flow cells. The sensor was deactivated using 1M ethanolamine. […] Concentration dependent kinetics were measured. […] All analytes were injected for 5 min association time and 10 min dissociation time at 100 μl/min flow rate. The sensor capture system was regenerated by a 3 min injection at 10 μl/min of 10 mM glycine pH 1.7. Where possible kinetic data was evaluated using the Biacore T200 evaluation software.

[4] = molecular target: T4, HER4 ECD-HRG complex …; assay: SPR Biacore T200, antibody captured, 25 C
Procedure: as §1

[5] = molecular target: T1, TtSlyDcys-Her3; assay: SPR Biacore T200, antibody captured, 25 C
Procedure: as §1

[6] = molecular target: T5, SBP-tagged HER3-ECD (human, UniProt P21860 20-643); assay: time-resolved fluorescence, 10 nM Eu-labelled Heregulin-beta on plate-bound SBP-tagged HER3-ECD, antibody titrated
T5 construct: not shown: SBP tag
Procedure: (§2) On the next day the wells were washed three times with washing buffer (PBS+0.05% Tween-20) and blocked with PBS containing 1% BSA for one hour. After another three washes with washing buffer, 40 μl antibody solution (in Delfia Binding Buffer) was added to each well as a 2× stock of the desired final concentrations (10⁻³ to 10³ nM, alternatively 10⁻⁴ to 10² nM). Immediately […] of 20 nM Europium-labeled Heregulin-beta (PeproTech, Cat. #100-03) was added to achieve a final concentration of 10 nM. The plates were incubated on a shaker at room temperature for two hours. Following three washes with Delfia Wash Buffer, Delfia Enhancement Solution was added and incubated on a shaker for 15 minutes (light protected). Finally, the plates were measured in a Tecan Infinite F200 reader using a time-resolved fluorescence measurement protocol.

[7] = molecular target: T5, SBP-tagged HER3-ECD; assay: plate assay: SBP-tagged HER3-ECD on streptavidin plate, antibody titrated, 10 nM Europium-labeled Heregulin-beta detected by time-resolved fluorescence; half-maximal rise of the Heregulin signal
Procedure: as §2

Row | Binder | OD 405 nm [1] [OD] | binding result [2] | binding result [3] | binding result [4] | Kd [5] [nM] | MR (Molar Ratio) [5] | koff [5] [s⁻¹] | kon [5] [M⁻¹ s⁻¹] | signal of HRG binding to HER3-ECD at the plateau [6] [%] | EC50 (read off the curve) [7] [nM]
1 | B1 | 1.55 | – | – | – | – | – | – | – | – | –
2 | B2 | 3.5 | no binding | no binding (tested: 450 nM) | no binding (tested: 90 nM) | 2.9 | 1.7 | 0.00016 | 54000 | 200 | –
3 | B3 | – | – | – | – | – | – | – | – | 200 | ~7
4 | B4 | – | no binding | no binding (tested: 450 nM) | no binding (tested: 90 nM) | – | – | – | – | 330 | ~2
